This passage reports Kd results from publication PMC7264293, “Multi-site-mediated entwining of the linear WIR-motif around WIPI β-propellers for autophagy” (Nature Communications, 2020).

Broadly, the Kd is a measure of binding affinity in units of concentration. Read a high Kd as lower affinity.

WIPI3-Δloop, Q5MNZ6 F125A, sequence (Q5MNZ6 other isoform, or with tags, fused parts or gaps F125A | mutant): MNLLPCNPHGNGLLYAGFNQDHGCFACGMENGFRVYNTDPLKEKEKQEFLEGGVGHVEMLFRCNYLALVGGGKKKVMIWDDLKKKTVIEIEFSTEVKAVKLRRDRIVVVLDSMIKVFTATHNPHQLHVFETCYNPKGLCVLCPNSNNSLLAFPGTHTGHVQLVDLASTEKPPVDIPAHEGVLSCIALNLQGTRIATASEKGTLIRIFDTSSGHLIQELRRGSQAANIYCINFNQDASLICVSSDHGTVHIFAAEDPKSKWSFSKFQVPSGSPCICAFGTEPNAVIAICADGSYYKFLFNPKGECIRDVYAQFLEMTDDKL
WIPI3-Δloop, Q5MNZ6 I96A, sequence (Q5MNZ6 other isoform, or with tags, fused parts or gaps I96A | mutant): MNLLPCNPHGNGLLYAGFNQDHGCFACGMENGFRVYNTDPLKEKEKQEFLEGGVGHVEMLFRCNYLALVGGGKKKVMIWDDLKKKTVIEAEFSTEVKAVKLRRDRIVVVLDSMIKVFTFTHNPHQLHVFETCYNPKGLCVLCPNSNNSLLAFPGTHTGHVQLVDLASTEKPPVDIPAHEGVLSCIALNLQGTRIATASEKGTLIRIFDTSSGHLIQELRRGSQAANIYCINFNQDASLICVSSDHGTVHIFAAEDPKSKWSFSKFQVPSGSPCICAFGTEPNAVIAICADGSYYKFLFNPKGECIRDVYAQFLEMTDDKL
WIPI3-Δloop, Q5MNZ6 R62A, sequence (Q5MNZ6 other isoform, or with tags, fused parts or gaps R62A | mutant): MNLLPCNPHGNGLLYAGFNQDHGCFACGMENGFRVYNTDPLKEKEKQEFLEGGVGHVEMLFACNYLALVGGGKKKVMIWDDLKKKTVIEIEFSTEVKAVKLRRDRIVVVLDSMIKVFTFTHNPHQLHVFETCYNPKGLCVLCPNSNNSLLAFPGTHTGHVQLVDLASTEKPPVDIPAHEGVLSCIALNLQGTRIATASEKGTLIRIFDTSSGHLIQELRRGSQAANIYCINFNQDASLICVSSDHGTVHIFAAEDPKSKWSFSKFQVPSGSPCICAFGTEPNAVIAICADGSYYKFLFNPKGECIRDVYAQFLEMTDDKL
WIPI3-Δloop, Q5MNZ6 R109Q, sequence (Q5MNZ6 other isoform, or with tags, fused parts or gaps R109Q | mutant): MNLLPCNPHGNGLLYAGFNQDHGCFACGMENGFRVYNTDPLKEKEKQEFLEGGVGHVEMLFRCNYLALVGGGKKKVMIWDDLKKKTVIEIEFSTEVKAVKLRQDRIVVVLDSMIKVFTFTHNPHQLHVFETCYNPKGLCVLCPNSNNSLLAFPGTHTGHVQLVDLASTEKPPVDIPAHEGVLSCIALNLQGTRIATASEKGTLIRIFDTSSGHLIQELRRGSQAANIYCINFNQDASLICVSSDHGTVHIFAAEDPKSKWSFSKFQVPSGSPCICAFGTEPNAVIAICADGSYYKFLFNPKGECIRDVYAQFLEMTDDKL
WIPI3-Δloop, Q5MNZ6 F98A, sequence (Q5MNZ6 other isoform, or with tags, fused parts or gaps F98A | mutant): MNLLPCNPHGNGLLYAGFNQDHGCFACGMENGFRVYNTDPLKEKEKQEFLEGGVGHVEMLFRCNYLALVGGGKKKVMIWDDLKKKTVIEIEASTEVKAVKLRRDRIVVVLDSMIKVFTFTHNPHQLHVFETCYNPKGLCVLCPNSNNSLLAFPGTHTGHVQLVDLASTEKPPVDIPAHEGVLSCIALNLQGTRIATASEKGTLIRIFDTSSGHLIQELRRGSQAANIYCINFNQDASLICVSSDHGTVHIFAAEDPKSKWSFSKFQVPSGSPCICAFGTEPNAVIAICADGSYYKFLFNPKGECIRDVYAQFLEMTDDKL
WIPI3-Δloop, Q5MNZ6 Y65A, sequence (Q5MNZ6 other isoform, or with tags, fused parts or gaps Y65A | mutant): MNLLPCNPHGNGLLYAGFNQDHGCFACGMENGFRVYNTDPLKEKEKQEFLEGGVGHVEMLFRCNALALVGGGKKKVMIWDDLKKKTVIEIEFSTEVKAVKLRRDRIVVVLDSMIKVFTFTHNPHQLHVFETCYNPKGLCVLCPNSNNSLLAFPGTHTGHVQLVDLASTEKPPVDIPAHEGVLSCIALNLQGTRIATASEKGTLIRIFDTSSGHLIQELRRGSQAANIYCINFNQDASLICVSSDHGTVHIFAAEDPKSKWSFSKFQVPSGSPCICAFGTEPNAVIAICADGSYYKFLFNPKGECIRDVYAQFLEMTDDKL

The target of this assay is GB1-tagged ATG2A short fragment (1374-1404), the WIR-peptide (UniProt Q2TAZ0). Put plainly: ITC. On the technique in general: ITC needs no label: the signal is the heat of the interaction.
GB1-tagged ATG2A short fragment (1374-1404), the WIR-peptide, sequence (Q2TAZ0 1374-1404): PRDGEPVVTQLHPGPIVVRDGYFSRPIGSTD
For WIPI3-Δloop, Q5MNZ6 F98A, the Kd amounted to 31.6 µM.
WIPI3-Δloop, Q5MNZ6 F125A had a Kd of 244 µM.
In the case of WIPI3-Δloop, Q5MNZ6 I96A, the Kd amounted to 40 µM.
For WIPI3-Δloop, Q5MNZ6 R62A the value was 72.5 µM.
WIPI3-Δloop, Q5MNZ6 R109Q registered a Kd of 52.6 µM.
In turn, WIPI3-Δloop, Q5MNZ6 Y65A had a Kd of 76.1 µM.
